This experiment has as its target tau Venus BiFC constructs (UniProt P10636). In words: split reporter (BiFC, NanoBiT); Venus BiFC; co-culture of HEK293 cells transfected with the VN construct and cells transfected with the VC construct (50,000 cells each per ml, 48 h); flow cytometry, cells above 120 fluorescence units are positive; also run after treatment with anle138b 1 µM, EGCG 0.1 µM, fulvic acid 37 µM or dynasore 10 µM.

Turning to “tau Venus BiFC constructs (from UniProt P10636 1-758) (natural protein)”, the percent of BiFC positive cells (co-culture) came to 3.9%.

For the origin of these results see publication PMC7393090.
